Laboratory results reported in US7666582B2, “IdeS, an IgG-degrading enzyme of Streptococcus pyogenes” (Hansa Medical Research AB, priority 2001, dated 2010).

What was measured:
lactoferrin = lactoferrin (Homo sapiens, UniProt P02788); assay: IdeS cleavage of other human proteins: lactoferrin; type: biochemical
α 1-antitrypsin = α 1-antitrypsin (Homo sapiens, UniProt P01009); assay: IdeS cleavage of other human proteins: α 1-antitrypsin; type: biochemical
rabbit IgG = assay: IdeS species restrictions: rabbit IgG; type: biochemical
[1] = test system: Fc-fragment generated by papain cleavage, including 12 amino acids of the hinge region; assay: IdeS cleavage of papain-generated Fc-fragment; type: biochemical, human
goat IgG = assay: IdeS species restrictions: goat IgG; type: biochemical
fibrinogen = target: T1, fibrinogen (Homo sapiens, UniProt P02671+P02675+P02679); assay: IdeS cleavage of other human proteins: fibrinogen; type: biochemical
T1 sequence (P02671 20-629 limits assumed): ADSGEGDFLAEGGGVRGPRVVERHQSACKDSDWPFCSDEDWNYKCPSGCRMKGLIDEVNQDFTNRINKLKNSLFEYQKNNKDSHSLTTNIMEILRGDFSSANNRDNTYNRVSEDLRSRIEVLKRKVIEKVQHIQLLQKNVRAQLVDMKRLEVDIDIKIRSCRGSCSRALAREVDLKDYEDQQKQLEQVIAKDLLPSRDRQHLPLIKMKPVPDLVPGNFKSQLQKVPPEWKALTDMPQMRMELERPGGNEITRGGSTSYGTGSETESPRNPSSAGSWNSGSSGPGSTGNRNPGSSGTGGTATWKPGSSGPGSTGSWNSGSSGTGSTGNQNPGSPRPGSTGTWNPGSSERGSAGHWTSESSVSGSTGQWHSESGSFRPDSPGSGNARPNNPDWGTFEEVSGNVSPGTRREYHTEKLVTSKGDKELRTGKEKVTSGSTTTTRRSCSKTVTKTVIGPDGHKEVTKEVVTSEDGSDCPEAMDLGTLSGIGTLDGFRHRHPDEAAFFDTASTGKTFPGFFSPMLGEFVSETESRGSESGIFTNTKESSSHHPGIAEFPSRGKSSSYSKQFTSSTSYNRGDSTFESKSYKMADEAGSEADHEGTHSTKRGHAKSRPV
T1 sequence (P02675 31-491): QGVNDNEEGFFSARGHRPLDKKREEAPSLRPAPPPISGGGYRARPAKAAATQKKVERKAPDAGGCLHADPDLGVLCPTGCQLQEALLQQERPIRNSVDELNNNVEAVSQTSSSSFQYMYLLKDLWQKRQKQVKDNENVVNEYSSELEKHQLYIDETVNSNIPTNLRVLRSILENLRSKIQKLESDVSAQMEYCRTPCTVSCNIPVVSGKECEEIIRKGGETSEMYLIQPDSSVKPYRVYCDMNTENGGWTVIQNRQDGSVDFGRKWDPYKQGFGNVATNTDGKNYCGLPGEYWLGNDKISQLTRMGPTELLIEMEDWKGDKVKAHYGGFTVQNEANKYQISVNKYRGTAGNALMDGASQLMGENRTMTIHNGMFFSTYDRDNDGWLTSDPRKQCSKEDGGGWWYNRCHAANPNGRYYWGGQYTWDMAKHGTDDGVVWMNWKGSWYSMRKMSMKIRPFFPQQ
T1 sequence (P02679 27-453): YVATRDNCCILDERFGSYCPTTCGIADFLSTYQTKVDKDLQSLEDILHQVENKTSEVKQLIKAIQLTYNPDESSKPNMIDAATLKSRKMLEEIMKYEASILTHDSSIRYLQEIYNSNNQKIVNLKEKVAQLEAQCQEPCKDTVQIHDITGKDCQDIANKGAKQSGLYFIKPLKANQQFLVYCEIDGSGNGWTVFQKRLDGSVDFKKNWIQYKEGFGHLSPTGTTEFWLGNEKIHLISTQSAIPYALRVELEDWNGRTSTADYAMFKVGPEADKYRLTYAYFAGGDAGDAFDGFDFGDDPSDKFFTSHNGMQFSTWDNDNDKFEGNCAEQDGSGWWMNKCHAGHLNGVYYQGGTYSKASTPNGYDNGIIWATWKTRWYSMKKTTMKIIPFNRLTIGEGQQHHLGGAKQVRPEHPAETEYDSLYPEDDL

cystatin C [2] = target: T2, cystatin C (Homo sapiens, UniProt P01034); assay: IdeS cleavage of other human proteins: cystatin C; type: biochemical
T2 sequence (P01034 27-146): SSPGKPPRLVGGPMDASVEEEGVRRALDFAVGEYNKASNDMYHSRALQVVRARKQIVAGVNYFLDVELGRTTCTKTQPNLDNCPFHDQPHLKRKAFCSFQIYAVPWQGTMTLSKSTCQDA

[3] = test system: synthetic peptide homologous to amino acids 234 to 241 of human IgG; assay: IdeS activity towards peptides: IgG hinge peptide; type: biochemical
whole human plasma = assay: Incubation of human plasma with IdeS; type: biochemical
[4] = IdeS activity towards peptides: Z-LVG-CHN2; type: biochemical; conditions: excess IdeS
transferrin = transferrin (Homo sapiens, UniProt P02787); assay: IdeS cleavage of other human proteins: transferrin; type: biochemical
transferrin, sequence (P02787 20-698): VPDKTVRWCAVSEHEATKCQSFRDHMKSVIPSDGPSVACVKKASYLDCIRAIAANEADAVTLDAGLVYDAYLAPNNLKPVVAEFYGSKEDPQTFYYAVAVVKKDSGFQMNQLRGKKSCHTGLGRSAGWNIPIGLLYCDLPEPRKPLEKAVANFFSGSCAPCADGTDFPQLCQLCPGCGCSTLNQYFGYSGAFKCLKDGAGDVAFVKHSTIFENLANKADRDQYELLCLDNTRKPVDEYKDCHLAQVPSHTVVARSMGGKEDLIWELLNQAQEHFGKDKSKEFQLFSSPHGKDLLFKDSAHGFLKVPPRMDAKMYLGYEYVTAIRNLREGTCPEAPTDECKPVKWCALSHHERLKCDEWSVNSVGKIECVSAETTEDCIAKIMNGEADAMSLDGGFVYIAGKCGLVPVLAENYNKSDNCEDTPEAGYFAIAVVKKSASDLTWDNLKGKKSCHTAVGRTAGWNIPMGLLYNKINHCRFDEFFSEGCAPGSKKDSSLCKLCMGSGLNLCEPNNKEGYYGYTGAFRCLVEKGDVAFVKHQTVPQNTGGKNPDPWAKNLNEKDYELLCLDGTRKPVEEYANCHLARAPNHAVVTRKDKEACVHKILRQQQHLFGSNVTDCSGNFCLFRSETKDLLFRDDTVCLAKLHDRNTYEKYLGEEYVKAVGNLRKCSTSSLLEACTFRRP

cystatin C [5] = target: T3, cystatin C (Mus musculus, UniProt P21460); assay: IdeS incubation with mouse cystatin C; type: biochemical
T3 sequence (P21460 21-140): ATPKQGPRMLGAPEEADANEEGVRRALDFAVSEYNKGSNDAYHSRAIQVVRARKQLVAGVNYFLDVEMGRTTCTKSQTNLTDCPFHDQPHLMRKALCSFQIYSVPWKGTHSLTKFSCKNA

cystatin C [6] = target: T4, cystatin C (Gallus gallus, UniProt P01038); assay: IdeS incubation with chicken cystatin C; type: biochemical
T4 sequence (P01038 24-139): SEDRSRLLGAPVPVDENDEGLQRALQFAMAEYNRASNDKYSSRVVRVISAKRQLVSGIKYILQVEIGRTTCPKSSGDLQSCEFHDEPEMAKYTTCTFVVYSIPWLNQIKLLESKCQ

human IgE = assay: IdeS cleavage assay of Ig classes: IgE; type: biochemical; conditions: purified IdeS, 2 h at 37° C.
Method: (§1) For standard IdeS activity assays, bacteria cultures were grown to OD620=0.4. Bacteria were pelleted by centrifugation and supernatants were sterile-filtered through a 0.22 μm membrane (Millipore) prior to use. For activity assays, […] of supernatant were mixed with 5 μl of IgG (10 mg/ml, Sigma) and the volume was adjusted with PBS to 100 μl. For screening of IdeS activity in different S. progenes strains, E64 was added to a final concentration of 40 μM. The mixtures were incubated at 37° C. for 30 min and samples were analyzed by 12% SDS-PAGE. For cleavage assays of different classes of Ig, purified IdeS (0.3 μg/ml) was incubated with 3 μg Ig for 2 h at 37° C., and analyzed by 12% SDS-PAGE analysis.

human IgD = assay: IdeS cleavage assay of Ig classes: IgD; type: biochemical; conditions: purified IdeS, 2 h at 37° C.
Method: as §1

lactoferrin, sequence (P02788 20-710): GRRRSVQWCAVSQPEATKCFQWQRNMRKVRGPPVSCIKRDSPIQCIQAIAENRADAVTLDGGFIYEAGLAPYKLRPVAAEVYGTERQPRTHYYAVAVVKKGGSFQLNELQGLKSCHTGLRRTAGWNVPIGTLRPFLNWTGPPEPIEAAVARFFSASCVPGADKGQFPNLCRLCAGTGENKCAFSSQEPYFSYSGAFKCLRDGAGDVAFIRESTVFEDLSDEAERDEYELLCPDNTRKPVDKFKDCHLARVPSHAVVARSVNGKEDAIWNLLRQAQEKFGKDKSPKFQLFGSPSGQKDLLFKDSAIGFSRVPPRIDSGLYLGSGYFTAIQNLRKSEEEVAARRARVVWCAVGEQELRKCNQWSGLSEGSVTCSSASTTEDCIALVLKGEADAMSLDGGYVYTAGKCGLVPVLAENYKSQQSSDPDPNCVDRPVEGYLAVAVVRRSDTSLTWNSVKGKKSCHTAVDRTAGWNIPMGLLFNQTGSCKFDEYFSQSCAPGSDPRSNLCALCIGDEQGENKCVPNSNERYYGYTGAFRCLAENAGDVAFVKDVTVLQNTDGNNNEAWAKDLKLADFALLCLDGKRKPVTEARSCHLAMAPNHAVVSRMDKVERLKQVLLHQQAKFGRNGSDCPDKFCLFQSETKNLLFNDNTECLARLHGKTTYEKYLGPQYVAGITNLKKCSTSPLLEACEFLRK
α 1-antitrypsin, sequence (P01009 25-418): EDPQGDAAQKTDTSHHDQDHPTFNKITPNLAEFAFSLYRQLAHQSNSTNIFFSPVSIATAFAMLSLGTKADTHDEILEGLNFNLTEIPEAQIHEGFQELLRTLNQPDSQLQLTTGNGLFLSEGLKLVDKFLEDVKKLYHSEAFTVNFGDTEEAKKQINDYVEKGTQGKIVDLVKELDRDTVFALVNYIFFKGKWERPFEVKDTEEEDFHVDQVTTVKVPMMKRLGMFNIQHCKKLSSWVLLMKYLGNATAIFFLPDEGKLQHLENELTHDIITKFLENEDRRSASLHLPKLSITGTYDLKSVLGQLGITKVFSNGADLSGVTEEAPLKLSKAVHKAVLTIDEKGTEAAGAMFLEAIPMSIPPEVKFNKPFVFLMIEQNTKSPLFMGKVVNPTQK

B1: IdeS: new extracellular cysteine protease produced by S. pyogenes, highly specific for IgG; SEQ ID NO: 1 (protein)
chain: DSFSANQEIRYSEVTPYHVTSVWTKGVTPPANFTQGEDVFHAPYVANQGWYDITKTFNGKDDLLCGAATAGNMLHWWFDQNKDQIKRYLEEHPEKQKINFNGEQMFDVKEAIDTKNHQLDSKLFEYFKEKAFPYLSTKHLGVFPDHVIDMFINGYRLSLTNHGPTPVKEGSKDPRGGIFDAVFTRGDQSKLLTSRHDFKEKNLKEISDLIKKELTEGKALGLSHTYANVRINHVINLWGADFDSNGNLKAIYVTDSDSNASIGMKKYFVGVNSAGKVAISAKEIKEDNIGAQVLGLFTLSTGQDSWNQTN
modifications: S. Pyogenes
cleavage products, lactoferrin (lactoferrin): No cleavage products could be detected | cleavage products, α 1-antitrypsin (α 1-antitrypsin): No cleavage products could be detected | cleavage of rabbit IgG (rabbit IgG): cleave | cleavage of papain-generated Fc-fragment [1]: is cleaved | cleavage of goat IgG (goat IgG): cleave | cleavage products, fibrinogen (fibrinogen): No cleavage products could be detected | cleavage products, cystatin C (cystatin C [2]): No cleavage products could be detected | degradation of synthetic peptide (amino acids 234 to 241 of human IgG) [3]: did not reveal any degradation | degradation products in human plasma (whole human plasma; purified IdeS): only the 31 kDa IgG-derived band and no additional degradation products could be identified | cleavage products (whole human plasma; whole human plasma, further studies): No cleavage products could be detected | cleavage of Z-LVG-CHN2 [4]: Neither was the synthetic peptide Z-LVG-CHN2, which inhibits IdeS activity, cleaved | cleavage products, transferrin (transferrin): No cleavage products could be detected | cleavage products, cystatin C from mouse (cystatin C [5]): No cleavage products could be observed | cleavage products, cystatin C from chicken (cystatin C [6]): No cleavage products could be observed | degradation of human IgE (human IgE): only IgG was degraded | degradation of human IgD (human IgD): only IgG was degraded
